Laboratory results reported in PMC4318572 (Journal of biomolecular screening, 2014).

B1: GST–Fyn SH3–strep (domain or fragment)
chain: not shown

Assays:
Test in all cases: AlphaScreen or HTRF
4R1N Tau = 4R1N Tau (human, UniProt P10636-7 1-412)
P203A Tau = P203A Tau (human, UniProt P10636-8 1-441, P203A)
3R2N Tau = 3R2N Tau (human, UniProt P10636-5 1-410)
P236A Tau = P236A Tau (human, UniProt P10636-8 1-441, P236A)
P233A Tau = P233A Tau (human, UniProt P10636-8 1-441, P233A)
[1] = target: Tau with P232 mutated to alanine (human, UniProt P10636-8 1-441, P232 (alanine scan))
3R1N Tau = 3R1N Tau (human, UniProt P10636-4 1-381)
4R0N Tau = 4R0N Tau (human, UniProt P10636-6 1-383)
3R0N Tau = 3R0N Tau (human, UniProt P10636-2 1-352)
GST–Fyn SH3–strep = target: B1

Measured: binding result

B1
not listed: GST–Fyn SH3–strep
binds: all other assays above

YGRKKRRQRRRRSRTPSLPTPPTREPKK [Tat-tagged peptide spanning the 5th and 6th PXXP motifs in Tau]
binds: GST–Fyn SH3–strep
